Residue numbers refer to the chain shown, from its start. Blank lines part the entries; values can stand above or below the binder they belong to.
Molecular target: T1, human Clec9A (human, UniProt Q6UXN8 1-241)
T1 construct: Expressed on transfected CHO-K1, HEK293-T and HL116 cells, or native on human dendritic cells; also called hClec9A; C-type lectin domain family 9 member A
Assay: flow cytometry on HEK293-T cells transfected with human Clec9A; His-tagged VHH at 2 µg/ml, anti-His FITC antibody; single concentration
Protocol: The binding characteristics of various VHHs (as described in Example 1) were tested by flow cytometry. HEK293-T cells were transfected with a human Clec9A expression plasmid and stained with the His-tagged VHHs at 2 μg/ml, followed by staining with an anti-His Fitc conjugated antibody. Binding was measured by detecting cellular fluorescence via flow cytometry.

T1 sequence (Q6UXN8 whole entry, the tested form may be a part): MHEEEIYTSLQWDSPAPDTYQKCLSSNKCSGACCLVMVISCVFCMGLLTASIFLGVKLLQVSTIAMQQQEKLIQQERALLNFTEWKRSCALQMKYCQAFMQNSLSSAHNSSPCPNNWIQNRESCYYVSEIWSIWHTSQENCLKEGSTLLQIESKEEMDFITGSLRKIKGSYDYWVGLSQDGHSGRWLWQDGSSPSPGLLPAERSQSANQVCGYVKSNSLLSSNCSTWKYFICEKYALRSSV

- binding result: binds
B1: 1LEC 26 (VHH)
VHH: QVQLQESGGGLVQPGGSLRLSCAASGRFFRVNAMGWYRQAPGKQRELVAAITNGGQTAYADSVKGRFTISKESARNTVHLQMSSLKPEDTAVYYCTIWAADYQQYWGQGTQVTVSS
notes: Entry includes C-terminal AAA-HA-His6 (pMECS)

- binding result: binds
B2: 2LEC 88 (VHH)
VHH: QVQLQESGGGLVQPGGSLRLSCTASGSFFSINAMGWYRQAPGNQRELVAAITNGGRIAYTDSVKGRFTISNDNAKNTVYLQMNSLKPEDTDVYYCNAKAIPIYGSTAEDYWGQGTQVTVSS
notes: as for B1

- binding result: binds
B3: 3LEC 27 (VHH)
VHH: QVQLQESGGGLVQAGGSLRLSCAASVNIGTLNSMAWYREAPGKQRELVAGITGGGQITYANSVRGRFTVSRDIAKSTAYLQMNTLKPEDTAVYYCAAYDRSATPYWGQGTQVTVSS
notes: as for B1

- binding result: binds
B4: 2LEC 60 (VHH)
VHH: QVQLQESGGGLVQPGGSLRLSCAASGRFFRVNAMGWYRQVPGKQRELVAAITNGGQIAYADSVKGRFTISRDSAKNTVYLQMNSLKSEDTDVYYCNAKAAATHLSTVADYWGQGTQVTVSS
notes: as for B1

- binding result: binds
B5: 3LEC 13 (VHH)
VHH: B4 VHH with V40A, A58V, D91A, T102S, H103Y, L104V
notes: as for B1

- binding result: binds
B6: 2LEC 95 (VHH)
VHH: QVQLQESGGGLVQAGGSLRLSCEASGRTFSTYAMAWFRQAPGKERDLVAAISWSGGSTEYHDSVKGRFTISRDNTKNTVYLQMNSLKAEDTAVYYCAAEVEGSGREGNFYGASWYPGQGTQVTVSS
notes: Entry includes C-terminal AAA-HA-His tag (pMECS); only five His are printed in the text

- binding result: binds
B7: 2LEC 76 (VHH)
VHH: QVQLQESGGGLVQAGESLRLSCVVSGRTFSINAMGWYRQAPGKQRELVAAITNQGRLSYVDSVKGRFTISRDNAANTVYLQMNSLKPEDTAVYYCAAFQSSGIDWGQGTQVTVSS
notes: as for B1

- binding result: binds
B8: 2LEC 62 (VHH)
VHH: QVQLQESGGGLVQPGGSLRLSCAAYGSIFSINAMGWYRQAPGKERELVAGITTQGRITYGNSVRGRFTISGDNAKNTVYLQMKSLKPEDTAVYYCSAWGVKTGPESGSGTLEGQGTQVTVSS
notes: as for B1

- binding result: binds
B9: 3LEC 4 (VHH)
VHH: QVQLQESGGGLVQPGGSLRLSCAASGSFFSINAMGWYRQAPGKQRELVAAITNQGRIAYADSVKGRFTISRDNAKNTVYLQMNSLKPEDTAVYYCGRPGWDYWGQGTQVTVSS
notes: as for B1

- binding result: binds
B10: 2LEC 67 (VHH)
VHH: QVQLQESGGGLVQAGGSLRLSCAASGRTFPGYVMAWFRQSPGQEREFAAAINWRGGDTYYADSVKGRFTISRDNVKNTVFLQMNSLKPEDTAVYFCAARLTTEYDYAYWGQGTQVTVSS
notes: as for B1

- binding result: binds
B11: 2LEC 61 (VHH)
VHH: QVQLQESGGGLVQPGGSLRLSCAASGSIVSINSMGWYRQAPGKQRELVAAITDQGRTTYADSVKGRFTISRDDAKNKNTVYLQMNSLKAEDTAVYACKAFGRFDDYWGQGTQVTVSS
notes: as for B1

- binding result: binds
B12: 2LEC 89 (VHH)
VHH: QVQLQESGGGLVQAGGSLRLSCAASGSIFSINSMGWYRQAPGKQRELVAAITNGGRTTYADSVKGRFTISRDNAKNTVYLQMDSLKPEDTAVYYCKGFSLTDDYWGQGTQVTVSS
notes: as for B1

- binding result: binds
B13: 2LEC 83 (VHH)
VHH: QVQLQESGGGLVQAGGSLRLSCAASGRTLSSYTIGWYRQAPGKQRELVAAITNQGRRTYADSVKGRFTISRDNAKNTVYLQMDSLKSEDTAVYYCKGFSPTDDFWGQGTQVTVSS
notes: as for B1

- binding result: binds
B14: 1LEC 27 (VHH)
VHH: QVQLQESGGGLVQAGESLRLSCAASGSSDSINAMGWYRQAPGKQRELVAAITSGGRSTYIDSAKGRATISRDNARNTAYLQMSSLKAEDTAVYYCTIWNRDRQQYWGQGTQVTVSS
notes: as for B1
